Data from the DeepSol protein solubility set.

Test: soluble on expression in E. coli; label from the status in PepcDB or PDB records

| Sequence | soluble on expression in E. coli |
| --- | --- |
| HHHMFNAKYVAEATGNFITVMDALKLNYNAKDQLHPLLAELLISINRVTRDDFENRSKLIDWIVRINKLSIGDTLTETQIRELLFDLELAYKSFYALLD | soluble |
| MAELEKTFALIKPDAVRAGKAQEIMQLIELNGFTIIAKQKLQLTRARAEEFYGEHKGKEFFPKLVNFMTSGPIWALVLAKPGAILAWRALMGPTNVFKARAEQPKCLRALYGTDGTQNATHGSDSPISAAREIKFFFPTLSGDPTIYAEPTAAAEYITKRIQPALAKALAALAREKPSADKFEAITFVAGYLLQNNPNKPKVLMPDEWDPALMGDDEDDEADFINARLAAPTGNDGATKAEFDAMVEAAKADTGGAAPAQEFVYPDSKPTTPVVPAPPAPGSKPPSASGARPQSARPTSARPPSASAAPPAPLAPVPPPASSSRPASGSGRPPSATARPPSATPPPPPPAVELEEADDPAQLDEAATKVQAAFRGYQARKEVAVMRSEAQPGEAAAEPEQEAELQPEAEPEPQPEGEQEPQPQASASSSFLPDGVTEEMAAEAATRVQAHMRGHLARKQVAAIKAQQAAPAVAESSEALAEPEPQPEAEAEPQPQASVSSSFLPDGVTEEMAAEAATLVQAHMRGHLARKQVAAIKAQQAAPAVAESSEAQAEAEQTEAEAEPQPDAEAEAGAAEGEAEPEPEAAE | not soluble |
| MSLTEHALSNARIVLEDDIILGSVLIRDGKIADISEGASKTGEDLEGDFLIPGLVELHTDHLEQHYSPRPGVIWDKIAAIQAHDAQVASSGITTVFDCLRLGSDEDGGFKKGEMREMADAIEAAADQNRLRADHLLHLRCEVASADVLEHFEDFETDPRVRLISLMDHSPGQRQFQSMDQYIFYYQKKRGLSDEAFAEFVRRRQAASAEYSAKHRDYLAASCAKRGITVASHDDATEAHVGEAIGHGVKLAEFPTSVEAAKASHSAGMSVLMGAPNIVRGKSHSGNIAARDLAEIGVLDVLSSDYVPFSLLFAPFLLADQVEAISLSEALRMVTATPARTVGLVDRGRIATGLRADLVRVHREDGVPVARSVWRQGKRVAEGHHHHHH | not soluble |
| MGSDKIHHHHHHMFGYVLPLRGELKVKDYEKFKSYYCGLCLSIKKNYGNLPRSVLNYDMTFLAVLLDALEDKKCEFRLNRCIAHPYKKKYAIINNKALDYAAFFNICLVYYKLVDDVNDDKKISSKIKSLLLRGYFKKFPKPFYVYSDYIKSSLTELNKLEKKSNNLTLDEISHPFSDLTAFIISSYADNKPYKDILYNIGYNLGKWIYIMDAYDDLKEDIKLKKFNAINNTMNLDDKPYEDLIKDISPKISFVLSMCGSNCLHNLNLLPLKTNQDILFNILQYGLLDKMNNLNL | not soluble |
| DLRGDLHMHTDYSEGAESLETMVEKAESMGYEYIAVTDHSRSQRIANGMDIETLKEQWKEIKSLSKRFRIKVLRGSEVEILKDGSLDYPDEILKELDVVVGAVHSGFAASEREMTGRIITALENKHLDILAHPSGRLLGKREAYAVNFGKVFEAAAENGKVMEINCQPSRLDLNDELIFRAKDYELKFCISTDSHSVSDLASMRYGLGQARRSWLEKEDIVNTYPYSRLKEVFKKLRD | not soluble |
| MGGSHHHHHHGMASALKEKKSQETEVTSTLEQQKICLVLESCLKKNSDEEGSQEKGGDDSQQKFIAHVPVPSQQEIEEALVRRKKMELLQKYASETLQAQSEEARRLLGY | not soluble |
| MNNSIPERFIFQCALFKNLEREVFMTHGYVDSHIIDQALRLRLKDETSVILSDLYLQILQYIEMHKTTLTDIIINDRESVLSAAALEHHHHHH | not soluble |
| MIFSVRGEVLEVALDHAVIEAAGIGYRVNATPSALATLNQGSQARLVTAMVVREDSMTLYGFSDAENRDLFLALLSVSGVGPRLAMATLAVHDAAALRQALADSDVASLTRVPGIGRRGAERIVLELADKVGPVGASGLTVGTAADGNAVRGSVVEALVGLGFAAKQAEEATDQVLDGELGKDGAVATSSALRAALSLLGKTR | soluble |
| EVPDLPEEPSETAEEVVTVALRCPNGRVLRRRFFKSWNSQVLLDWMMKVGYHKSLYRLSTSFPRRALEVEGGSSLEDIGITVDTVLNVEEKEQSSQ | soluble |
| KEMRQQVPATIKGPTEEYEYYMELMALLNNLLETARSRGFKFLDSHIEAPEQSSIFLMYPLVSEDHRLISFITDNLRLMAMGQMSPHELEGLLEQEIEAIQNELLLPSRSLQRTAE | not soluble |
| VARCQVPDCEADISELKGYHKRHRVCLRCATASFVVLDGENKRYCQQCGKFHLLPDFDEGKRSCRRKLERHNNRRKRKPVDKGGVA | soluble |
| MKELDKIDFRILKILQQNARIPMTELAEKVGLSTTPVTERVRRLEREHYISGYHAHLNPHLLGKPLLVFVELKLQSKSGNIFEDFKKEVLKIPQIMECHLVSGEYDYLIKVRLPDMSAYRDMLGNILLQLPAASESRSYVVMEEVKENPVLDLD | soluble |
| MKSFLVAGCTSDAGKSVVVAGLCRALTRRGLRVAPFKAQNMSNNSAVTPDGGEIGRAQALQAYACGLTPSVDFNPILLKPGSDRTSQLVVRGIATGNVSARSYIEHRTELRKIASESLNSLRERFDVVVCEGAGSPAETNLRATDVANFGLAEECDLPVYIVGDIDRGGVLAHFYGTHQIVDDADRARIKGFVVNKFRGDVSILEPGLQDLEDRLGVPTVAVLPFIHGLWIDAEDSLQSTIGATVGPAAAPLGTQRLRVAAIRLPRVSNATDVEALACEPGVTVTWTVDPDSVAEADLVVIPGSKATLSDLAWLRSTGVADAIMERARSQRPILGICGGFQMMCSHIDDPVESGSTTPVEGLGIFDVDIEFHPEKTLIRHENGGYEVHHGRVERSTEQPWIGNEGARTQSNFGTHRHGYLEDDEARRDFLGTVSTLAQRPGFVVAPATSFEAERNKQLDVIADAIEQHWDLDQLIAALT | not soluble |
| MLTDPIADMLTRIRNATRVYKESTDVPASRFKEEILRILAREGFIKGYERVDVDGKPYLRVYLKYGPRRQGPDPRPEQVIHHIRRISKPGRRVYVGVKEIPRVRRGLGIAILSTSKGVLTDREARKLGVGGELICEVW | soluble |
| MLVCNPYEVVIHGTTSSGKIFRPSDWAERLCGILSSFTKDHRLSYSKWVRPILVDNIRCVAVDKKLETDNPQMFRFLMDFAADNDLRVIDCKALLEEREQGGQNNPADEHVMLAQAIEEKHAAEKAQEQTASGASYVLREIGADDTATAFAALSVLRSALTDINRFTEQINKVQRPQGYRLLGIFEEGKHNAVAVCGFREACTLASGRHIHIDDIVTLPQSRRKGYASRLLEEVRKIGAETGVTKIHLNVHVNHDRADAHRLYFKNGFEICAYHFRCDPK | not soluble |
| MKIITAINEDEWASITHIATTVHLKKDQLIIRKGDPGNKEVFLVNGIVRGFITDENGNEKSTSFFEEGEFMSTQALRTKKGISLYNYQALCRTKLLIFDSKQLKDLLSATKKLSEIGKAIKERELTRLMNRDDCLMQVKALDKYQKFITYYPALERQISQRYIASYLGITPVSLSRLKKSMIVRTDNN | not soluble |
| MSLIQQQPIKPLANSQVCCSDFSQYPWIQLATTEDINFQLDKDSPIGHFSDGNSYFNAFKFAERSGKVQLRLSSLMINDSVAAPKLIALDHEFNVVSTTSLDQFDVKPSDAFTRTQFQLNFQLNAAKTPYFIIYSSNEYLGQSIKVKHPARIRAEELGEPMPMVTDPTYAYERFGKLKLSIKTLSLQADKQADQQPKVAIKSAQPETHTFYKEAIVEAVKTNDIPKALALLEEAKSLGIQDAQDTFVQALESQKEGHHHHHH | soluble |
| MGSDKIHHHHHHMKADFDVLIIGAGLSGIGMACHLAEACPDKRVGILERRSAIGGTWDLFRYPGIRSDSDMFSFGYKFRPWHELKVLADGPAIRRYIADTAREYGVDKSIRFGLKVLRASWSSEDRSWTVTVQQEDSHETHSLTCKFLISCTGYYNYDHGYRPDFTGLERFQGICVHPQHWPQDLDYHGKRVIVIGSGATAVTLVPSMAGKASHVTMLQRSPSYVFSVPAYDKISAVLQKMLPASWVFGLARWRNIRLQRFIYRAARRWPQRVRAWLLSHVEQQLGHGADLRHFSPEYNPWDQRLCAVPDGDLFKAIREGKASVVTDQIDTFTETGVRLKSGRRLDADIIVTATGLQLQSLGGMEVQVDGQPRHASSLMTYKSVLMQDVPNMAHLFGYTNAPWTLKVDLAASYICRLLDHMDRHEYEVVTPGAPAGEMLDETVMDSLQSGYVQRGRNVLPRQGRKLPWRVVHNFEADRDMLTRHPVSDPALAFVRAATTARTGKASELVATRMDGTAV | not soluble |
| MSLTLDVWQHIRQEAKELAENEPMLASFFHSTILKHQNLGGALSYLLANKLANPIMPAISLREIIEEAYQSNPSIIDCAACDIQAVRHRDPAVELWSTPLLYLKGFHAIQSYRITHYLWNQNRKSLALYLQNQISVAFDVDIHPAAKIGHGIMFDHATGIVVGETSVIENDVSILQGVTLGGTGKESGDRHPKVREGVMIGAGAKILGNIEVGKYAKIGANSVVLNPVPEYATAAGVPARIVSQDKAAKPAFDMNQYFIGIDDGMNLNEGGSHHHHHH | soluble |
| MEKIKIIVASDSIGETAELVARAGISQFNPKQCKNELLRYPYIESFEDVDEVIQVAKDTNAIIVYTLIKPEMKQYMSEKVAEFQLKSVDIMGPLMDLLSASVEEKPYNEPGIVHRLDDAYFKKIDAIEFAVKYDDGKDPKGLPKADIVLLGISRTSKTPLSQYLAHKSYKVMNVPIVPEVTPPDGLYDIDPKKCIALKISEEKLNRIRKERLKQLGLGDTARYATEARIQEELNYFEEIVSEIGCPVIDVSQKAIEETANDIIHYIEQNKSKLEHHHHHH | not soluble |
| MNKQEVILKVQECAAWWILERQSKLTKLMSETMSINPFMTPFIFDYHSLNDFDELVEAIIAKHLMTGHDTGFGKLIDEKILPRVFGAYKLDKSYRAANEPFIHPCFDEIDHVIQRDDGRIELLSLKAGKWTIQLTMAVQLNKAFHEIINNYPGVADNIVVGVFYGNSHGLTDKYRILRGINTGANHNVIDIRDKVHVYAGKEFWSWLNNGEAETQHWVLEGIERAVKEADIKEKNKDLIEKFKEHVAKKYNEQVLNADGTAQWHKLLEMINE | soluble |
| MFGIFDKGQKIKGTVVLMPKNVLDFNAITSIGKGGVIDTATGILGQGVSLVGGVIDTATSFLGRNISMQLISATQTDGSGNGKVGKEVYLEKHLPTLPTLGARQDAFSIFFEWDASFGIPGAFYIKNFMTDEFFLVSVKLEDIPNHGTIEFVCNSWVYNFRSYKKNRIFFVNDTYLPSATPAPLLKYRKEEFEVLRGDGTGKRKDFDRIYDYDVYNDLGNPDGGDPRPILGGCSIYPYPLRVRTGRERTRTDPNSEKPGEVYVPRDENFGHLKSSDFLTYGIKSLSHDVIPLFKSAIFQLRVTSSEFESFEDVRSLYEGGIKLPTDILSQISPLPALKEIFRTDGENVLQFPPPHVAKVSKSGVMTDEEFAREVIAGVNPNVIRRLQEFPPKSTLDPTLYGDQTSTITKEQLEINMGGVTVEEALSTQRLFILDYQDAFIPYLTRINSLPTAKAYATRTILFLKDDGTLKPLAIELSKPHPDGDNLGPESIVVLPATEGVDSTIWLLAKAHVIVNDSGYHQLVSHWLNTHAVMEPFAIATNRHLSVLHPIYKLLYPHYRDTININGLARQSLINADGIIEKSFLPGKYSIEMSSSVYKNWVFTHQALPADLVKRGLAIEDPSAPHGLRLVIEDYPYAVDGLEIWDAIKTWVHEYVSLYYPTDAAVQQDTELQAWWKEAVEKGHGDLKEKPWWPKKQTTEDLIQSCSIIVWTASALHAAVNFGQYPYGGLILNRPTLARRFIPAEGTPEYDEMVKNPQKAYLRTITPKFETLIDLSVIEILSRHASDEIYLGERETPNWTTDKKALEAFKRFGSKLTGIEGKINARNSDPSLRNRTGPVQLPYTLLHRSSEEGLTFKGIPNSISI | soluble |
